Reference: article PMC12702981, “Population pharmacokinetics of efpeglenatide in individuals with obesity and with type 2 diabetes” (Frontiers in Pharmacology, 2025)
Marks after values point to notes of the source that are not given here.

Legend:
[1] = ref Geiser et al., 2016; cited from earlier work
Source text: This finding is aligned with the pharmacokinetic properties of Fc-fusion proteins, in which neonatal Fc receptor (FcRn)-mediated recycling limits proteolytic catabolism and prolongs systemic residence ([Richter and Jacobsen, 2014]).

[2] = human, in vivo
Procedure: The population PK analysis was performed based on pooled data from one phase 1 and five phase 2 studies of efpeglenatide. […] Dosing regimens ranged from once weekly (QW) to every other week (Q2W) and once monthly (QM) subcutaneous administration.
The pooled dataset comprised six clinical studies (five studies in patients with T2DM and one study in obesity). A total of 3,596 plasma efpeglenatide concentration measurement were collected from 498 subjects across six clinical studies at prespecified time points.
All samples were analyzed at certified laboratories using validated analytical method. Serum concentrations of efpeglenatide were quantified using a validated Enzyme-Linked Immunosorbent Assay (ELISA) method.
For the PK analysis, 3,316 post-dose plasma concentrations above the lower limit of quantification (LLOQ) were used in the model estimation. All pre-dose concentrations before the first administration were excluded from the dataset. Post-dose samples below the limit of quantification (BLQ) were treated as missing (i.e., not included in the analysis). In total, 117 pre-dose samples (3.25%) and 153 post-dose samples (4.0%) were BLQ.
The base PK model evaluation was begun with a one-compartment disposition model with first-order elimination, with additional refinement to better characterize the absorption phase. […] The first one of the two divided doses was described as the first order absorption after bolus doses into depot compartment, capturing the first peak during the absorption phase. The second part of the dose was introduced to describe the second peak with time delay during absorption phase, which was described using a transit compartment model ([Savic et al., 2007]). […] After the absorption model was established, various compartment models were evaluated.
The transit compartment model describes the delay in absorption as the sequential passage of the drug through a chain of transit compartments, each connected by a first-order transit rate constant (Ktr). The number of transit compartments (n) and the mean transit time (MTT) were estimated from the data, with Ktr calculated as (n+1)/MTT. Drug exiting the final transit compartment entered the absorption compartment and was transferred to the central compartment via first-order absorption, as described by Equations 1–3.
The amount of drug administered subcutaneously (Asc) in the depot, central compartment (Ac) and peripheral compartment (Ap) were described using the following differential Equations 4–6: dAsc/dt=Dose·BIOA1+Dose·BIOA2·Ktr·t^n·e^−Ktr·t/2π·n^n+0.5·e^−n−ka·Asc (4) dAc/dt=ka·Asc−Ac/Vc·CL−Ac/Vc·Q+Ap/Vp·Q (5) dAp/dt=Ac/Vc·Q−Ap/Vp·Q (6)
To confine the estimated fraction values to the range between 0 and 1 and to allow implementation of interindividual variability, a logit transformation was applied. BIOA1 and BIOA2 represent the fractions of the administered dose entering the depot compartment via the bolus administration route and the delayed absorption route, respectively. The transformation was defined as shown in Equation 7 ([Adedokun et al., 2020]): BIOA1=e^BIOF/1+e^BIOF,BIOA2=1/1+e^BIOF (7) where BIOF is an unbounded parameter ( −∞∼∞ ) representing the logit-transformed value of BIOA1, and BIOA2 = 1-BIOA1
The population PK modeling analysis was performed using NONMEM version 7.5 (ICON Development Solutions, Hanover, MD, United States). The first-order conditional estimation method with interaction (FOCEI) was used to approximate the marginal likelihood and facilitate estimation of population model parameters.

[3] = ref Yoon et al., 2020; cited from earlier work
Source text: Gastrointestinal (GI) adverse events are the most frequent class-related tolerability issues with GLP-1 receptor agonists, and stepwise dose-escalation regimens are commonly used to mitigate these events ([U.S. Food and Drug Administration, 2014]; [Davies et al., 2022]). […] Efpeglenatide has shown an adverse event profile consistent with this drug class ([Yoon et al., 2020]; [Gerstein et al., 2021]). The model-derived effective half- ...

[4] = patients with T2DM; ref Gerstein et al., 2021; cited from earlier work

| Substance | CL, clearance [1] | BIOA1, dose fraction absorbed via the first-order pathway [2] | BIOA2, dose fraction absorbed via the transit-compartment pathway [2] | BIOF, logit parameter expressing the fraction of dose absorbed via the first-order and transit pathway [2] | CL/F in T2DM, clearance for patients with T2DM [2] | CL/F in obesity, clearance for obesity [2] | Covariate effect (θ) of body weight on CL/F [2] | Covariate effect (θ) of body weight on ka [2] | Expected time to steady state [2] | Higher clearance (CL/F) in T2DM than in obesity [2] | MTT, mean transit time [2] | Model-derived effective half-life [2] | N, number of transit compartments [2] | VSS [2] | Q/F, inter-compartment clearance ([2]; sc) | VC/F, volume of the central compartment ([2]; sc) | VP/F, volume of the peripheral compartment ([2]; sc) | ka, absorption rate constant ([2]; sc) | Clinically reported half-life [3] | Weight loss [4] |
| --- | --- | --- | --- | --- | --- | --- | --- | --- | --- | --- | --- | --- | --- | --- | --- | --- | --- | --- | --- | --- |
| dulaglutide: another Fc-fusion GLP-1 receptor agonist | 0.059 L/h |  |  |  |  |  |  |  |  |  |  |  |  |  |  |  |  |  |  |  |
| efpeglenatide |  | 0.248 ^a | 0.752 ^b | −1.11 [27.59] | 0.044 [1.50] L/h | 0.032 [1.79] L/h | 0.964 [6.75] | −0.927 [14.24] | ≈ 4 weeks | 38% | 2.680 [13.47] hour | 140 to 170 h | 5.520 [22.28] | ≈ 6.8 L | 0.073 [11.14] L/h | 2.80 [7.39] L | 3.96 [6.57] L | 0.006 [4.33] 1/h | 134 to 180 h | 6%–7% |
